This series concerns Escherichia coli TOP10. As to the kind of experiment: shrunken log2 fold change of peptide-encoding DNA abundance (4.5 h post-induction vs induction); higher = less antimicrobial activity (less host growth inhibition). Particulars: time post-induction: 4.5 h; library: site-saturation at positions 5, 18, 19, 20.
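Note: peptides expressed intracellularly from a pBAD plasmid library in pooled LB shake-flask culture, induced with 0.3% L-arabinose, DNA abundance read by NGS, three biological replicates, DESeq2 with apeglm shrinkage.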

Regarding RRIRERPPRLPRPRPRPKCSPRP, the “shrunken log2 fold change” value was -0.0163.

In the case of RRIRMRPPRLPRPRPRPMTGPRP, the “shrunken log2 fold change” value turned out to be 0.0472.

On to RRIRFRPPRLPRPRPRPACDPRP, for which the “shrunken log2 fold change” value stood at 0.103.

With RRIRLRPPRLPRPRPRPVPCPRP, the “shrunken log2 fold change” value was -0.239.

With RRIRYRPPRLPRPRPRPASFPRP, the “shrunken log2 fold change” value is -0.138.

Take RRIRPRPPRLPRPRPRPTRSPRP: the “shrunken log2 fold change” value was 0.365.

Consider RRIRIRPPRLPRPRPRPRWHPRP, for which the “shrunken log2 fold change” value stood at 0.139.

With RRIRFRPPRLPRPRPRPYCTPRP, the “shrunken log2 fold change” value is -0.873.

In the case of RRIRKRPPRLPRPRPRPKHIPRP, the “shrunken log2 fold change” value is -0.0252.

For the sequence RRIRVRPPRLPRPRPRPWLHPRP, the “shrunken log2 fold change” value came out at 0.215.

With RRIRCRPPRLPRPRPRPMYFPRP, the “shrunken log2 fold change” value is -0.796.

Consider RRIRVRPPRLPRPRPRPERHPRP, for which the “shrunken log2 fold change” value was -0.0734.

RRIRERPPRLPRPRPRPFGMPRP: the “shrunken log2 fold change” value was -0.0947.

With RRIRQRPPRLPRPRPRPAPTPRP, the “shrunken log2 fold change” value came to 0.709.

Take RRIRGRPPRLPRPRPRPNTGPRP: the “shrunken log2 fold change” value worked out at 0.0864.

As to RRIRSRPPRLPRPRPRPAKAPRP, the “shrunken log2 fold change” value stood at 0.000841.

As for RRIRDRPPRLPRPRPRPTWAPRP, the “shrunken log2 fold change” value is 0.168.

For RRIRQRPPRLPRPRPRPAYAPRP, the “shrunken log2 fold change” value is -0.189.

For RRIRLRPPRLPRPRPRPFAWPRP, the “shrunken log2 fold change” value was -0.00134.

Take RRIRNRPPRLPRPRPRPCELPRP: the “shrunken log2 fold change” value is -0.0966.

As for RRIRARPPRLPRPRPRPHSRPRP, the “shrunken log2 fold change” value is -0.0946.

In the case of RRIRLRPPRLPRPRPRPWHCPRP, the “shrunken log2 fold change” value was -0.0686.

With RRIRCRPPRLPRPRPRPAFEPRP, the “shrunken log2 fold change” value is 0.0704.

Consider RRIRDRPPRLPRPRPRPSVPPRP, for which the “shrunken log2 fold change” value is -0.329.

As for RRIRFRPPRLPRPRPRPPSHPRP, the “shrunken log2 fold change” value stood at 0.123.

In the case of RRIRHRPPRLPRPRPRPMHGPRP, the “shrunken log2 fold change” value is -0.00804.

As for RRIRCRPPRLPRPRPRPWQGPRP, the “shrunken log2 fold change” value is -0.0944.

Consider RRIRLRPPRLPRPRPRPAMFPRP, for which the “shrunken log2 fold change” value was -0.0833.

RRIRTRPPRLPRPRPRPEQQPRP: the “shrunken log2 fold change” value turned out to be 0.436.

For the sequence RRIRKRPPRLPRPRPRPIYFPRP, the “shrunken log2 fold change” value was found to be 0.216.

With RRIRARPPRLPRPRPRPHWCPRP, the “shrunken log2 fold change” value worked out at 0.0773.

For the sequence RRIRPRPPRLPRPRPRPTISPRP, the “shrunken log2 fold change” value is -0.218.

As to RRIRCRPPRLPRPRPRPLKLPRP, the “shrunken log2 fold change” value is -0.271.

RRIRYRPPRLPRPRPRPWYQPRP: the “shrunken log2 fold change” value is -3.18.

For the sequence RRIRKRPPRLPRPRPRPVRMPRP, the “shrunken log2 fold change” value was 0.0401.

Regarding RRIRDRPPRLPRPRPRPPNIPRP, the “shrunken log2 fold change” value was -0.0733.

Regarding RRIRLRPPRLPRPRPRPHGVPRP, the “shrunken log2 fold change” value is -0.0127.

Turning to RRIRIRPPRLPRPRPRPQCFPRP, the “shrunken log2 fold change” value came out at 0.0204.

Regarding RRIRRRPPRLPRPRPRPITSPRP, the “shrunken log2 fold change” value was -0.00199.

For RRIRDRPPRLPRPRPRPRYCPRP, the “shrunken log2 fold change” value is -0.351.

As to RRIRIRPPRLPRPRPRPNDLPRP, the “shrunken log2 fold change” value is -0.16.

For the sequence RRIRRRPPRLPRPRPRPIKVPRP, the “shrunken log2 fold change” value is -0.186.

Consider RRIRSRPPRLPRPRPRPIPIPRP, for which the “shrunken log2 fold change” value came to 0.159.

For RRIRERPPRLPRPRPRPIEHPRP, the “shrunken log2 fold change” value was -0.00973.

Consider RRIRRRPPRLPRPRPRPDQRPRP, for which the “shrunken log2 fold change” value is -0.0913.

In the case of RRIRKRPPRLPRPRPRPTIGPRP, the “shrunken log2 fold change” value was found to be 0.0992.

For the sequence RRIRYRPPRLPRPRPRPLYTPRP, the “shrunken log2 fold change” value is -0.795.

On to RRIRTRPPRLPRPRPRPAYNPRP, for which the “shrunken log2 fold change” value was -0.355.

With RRIRLRPPRLPRPRPRPTEEPRP, the “shrunken log2 fold change” value was -0.0651.

RRIRIRPPRLPRPRPRPMKMPRP: the “shrunken log2 fold change” value was -0.127.

Take RRIRRRPPRLPRPRPRPIGFPRP: the “shrunken log2 fold change” value was determined as 0.0265.

As for RRIRLRPPRLPRPRPRPHPMPRP, the “shrunken log2 fold change” value was -0.173.

On to RRIRTRPPRLPRPRPRPIDNPRP, for which the “shrunken log2 fold change” value is -0.51.

RRIRGRPPRLPRPRPRPVCSPRP: the “shrunken log2 fold change” value turned out to be 0.613.

With RRIRGRPPRLPRPRPRPTLNPRP, the “shrunken log2 fold change” value is 0.835.

As to RRIRGRPPRLPRPRPRPIYDPRP, the “shrunken log2 fold change” value was -0.259.

For the sequence RRIRGRPPRLPRPRPRPYVCPRP, the “shrunken log2 fold change” value was -0.00206.

Regarding RRIRQRPPRLPRPRPRPPSTPRP, the “shrunken log2 fold change” value was determined as 0.179.

For RRIRMRPPRLPRPRPRPSSPPRP, the “shrunken log2 fold change” value is 0.16.

Consider RRIRHRPPRLPRPRPRPWAPPRP, for which the “shrunken log2 fold change” value was -0.251.

As for RRIRIRPPRLPRPRPRPMSQPRP, the “shrunken log2 fold change” value was -0.119.

Consider RRIRRRPPRLPRPRPRPARTPRP, for which the “shrunken log2 fold change” value was 0.35.

For RRIRIRPPRLPRPRPRPYTLPRP, the “shrunken log2 fold change” value is -0.478.

On to RRIRKRPPRLPRPRPRPSRSPRP, for which the “shrunken log2 fold change” value was 0.0164.

In the case of RRIRGRPPRLPRPRPRPNSYPRP, the “shrunken log2 fold change” value was -0.0855.

Take RRIRCRPPRLPRPRPRPSCHPRP: the “shrunken log2 fold change” value is -0.301.

As to RRIRVRPPRLPRPRPRPTSEPRP, the “shrunken log2 fold change” value came to 0.066.

On to RRIRCRPPRLPRPRPRPLPRPRP, for which the “shrunken log2 fold change” value came out at 0.612.

Turning to RRIRIRPPRLPRPRPRPRKKPRP, the “shrunken log2 fold change” value is 0.247.

Regarding RRIRQRPPRLPRPRPRPVDQPRP, the “shrunken log2 fold change” value worked out at 0.0619.

Consider RRIRFRPPRLPRPRPRPFKHPRP, for which the “shrunken log2 fold change” value is -0.2.

As to RRIRPRPPRLPRPRPRPVGKPRP, the “shrunken log2 fold change” value is -0.00576.

As to RRIRGRPPRLPRPRPRPDKSPRP, the “shrunken log2 fold change” value worked out at 0.18.

With RRIRIRPPRLPRPRPRPWDWPRP, the “shrunken log2 fold change” value was 0.0472.

Turning to RRIRGRPPRLPRPRPRPEWDPRP, the “shrunken log2 fold change” value was determined as 1.56.

Turning to RRIRQRPPRLPRPRPRPMPWPRP, the “shrunken log2 fold change” value was determined as 0.117.

As to RRIRSRPPRLPRPRPRPHMHPRP, the “shrunken log2 fold change” value was -0.202.

As for RRIRWRPPRLPRPRPRPETWPRP, the “shrunken log2 fold change” value amounted to 0.502.

As to RRIRNRPPRLPRPRPRPWRNPRP, the “shrunken log2 fold change” value was determined as 0.0352.

For the sequence RRIRFRPPRLPRPRPRPSWEPRP, the “shrunken log2 fold change” value was -0.0476.

For RRIRPRPPRLPRPRPRPYCYPRP, the “shrunken log2 fold change” value was -0.798.

In the case of RRIRLRPPRLPRPRPRPIESPRP, the “shrunken log2 fold change” value came out at 0.033.

Consider RRIRMRPPRLPRPRPRPGKDPRP, for which the “shrunken log2 fold change” value was 0.0653.

As to RRIRNRPPRLPRPRPRPYAIPRP, the “shrunken log2 fold change” value was -0.105.

With RRIRARPPRLPRPRPRPDSRPRP, the “shrunken log2 fold change” value came to 0.12.

Take RRIRVRPPRLPRPRPRPKYFPRP: the “shrunken log2 fold change” value was -0.239.

In the case of RRIRPRPPRLPRPRPRPVLTPRP, the “shrunken log2 fold change” value amounted to 0.0816.

For RRIRTRPPRLPRPRPRPYNRPRP, the “shrunken log2 fold change” value was -0.0176.

On to RRIRERPPRLPRPRPRPPNVPRP, for which the “shrunken log2 fold change” value worked out at 0.149.

RRIRLRPPRLPRPRPRPMIIPRP: the “shrunken log2 fold change” value was -0.407.

For RRIRSRPPRLPRPRPRPWCCPRP, the “shrunken log2 fold change” value is -0.544.

Take RRIRDRPPRLPRPRPRPCRSPRP: the “shrunken log2 fold change” value is -0.0116.

RRIRIRPPRLPRPRPRPMCCPRP: the “shrunken log2 fold change” value was -0.212.

Turning to RRIRNRPPRLPRPRPRPFPWPRP, the “shrunken log2 fold change” value was -0.084.

Turning to RRIRERPPRLPRPRPRPLSHPRP, the “shrunken log2 fold change” value is -0.314.

As to RRIRSRPPRLPRPRPRPWYNPRP, the “shrunken log2 fold change” value was -0.502.

RRIRTRPPRLPRPRPRPFALPRP: the “shrunken log2 fold change” value is -0.0597.

Consider RRIRNRPPRLPRPRPRPTASPRP, for which the “shrunken log2 fold change” value is 1.61.

Turning to RRIRYRPPRLPRPRPRPIMTPRP, the “shrunken log2 fold change” value is -0.991.

For RRIRGRPPRLPRPRPRPKCSPRP, the “shrunken log2 fold change” value amounted to 0.704.

Turning to RRIRFRPPRLPRPRPRPLNYPRP, the “shrunken log2 fold change” value was -0.755.

On to RRIRNRPPRLPRPRPRPQYHPRP, for which the “shrunken log2 fold change” value was -0.767.

Regarding RRIRFRPPRLPRPRPRPEHAPRP, the “shrunken log2 fold change” value is 0.243.

For RRIRQRPPRLPRPRPRPDYEPRP, the “shrunken log2 fold change” value came to 0.0301.

RRIRYRPPRLPRPRPRPTIEPRP: the “shrunken log2 fold change” value is -0.391.

On to RRIRHRPPRLPRPRPRPNSKPRP, for which the “shrunken log2 fold change” value is -0.737.

With RRIRKRPPRLPRPRPRPPCKPRP, the “shrunken log2 fold change” value is -0.242.

In the case of RRIRQRPPRLPRPRPRPPRYPRP, the “shrunken log2 fold change” value worked out at 0.606.

As for RRIRMRPPRLPRPRPRPYHNPRP, the “shrunken log2 fold change” value was -0.47.

As to RRIRLRPPRLPRPRPRPEMNPRP, the “shrunken log2 fold change” value was determined as 0.176.

For RRIRMRPPRLPRPRPRPDTGPRP, the “shrunken log2 fold change” value was found to be 0.112.

With RRIRLRPPRLPRPRPRPVEEPRP, the “shrunken log2 fold change” value was found to be 0.21.

As to RRIRARPPRLPRPRPRPLDMPRP, the “shrunken log2 fold change” value was -0.00812.

For RRIRRRPPRLPRPRPRPRYHPRP, the “shrunken log2 fold change” value was found to be 0.14.

In the case of RRIRKRPPRLPRPRPRPINVPRP, the “shrunken log2 fold change” value came out at 0.095.

Turning to RRIRVRPPRLPRPRPRPPQCPRP, the “shrunken log2 fold change” value was -0.143.

RRIRHRPPRLPRPRPRPILVPRP: the “shrunken log2 fold change” value was -0.148.

In the case of RRIRFRPPRLPRPRPRPVVLPRP, the “shrunken log2 fold change” value stood at 0.0119.

In the case of RRIRGRPPRLPRPRPRPYADPRP, the “shrunken log2 fold change” value was 0.0582.

Consider RRIRGRPPRLPRPRPRPWRGPRP, for which the “shrunken log2 fold change” value was determined as 0.228.

Regarding RRIRFRPPRLPRPRPRPWKNPRP, the “shrunken log2 fold change” value amounted to 0.0106.

In the case of RRIRSRPPRLPRPRPRPWAPPRP, the “shrunken log2 fold change” value worked out at 0.0324.

As for RRIRPRPPRLPRPRPRPVHGPRP, the “shrunken log2 fold change” value came out at 0.0843.

Consider RRIRWRPPRLPRPRPRPSADPRP, for which the “shrunken log2 fold change” value came to 0.115.

Consider RRIRQRPPRLPRPRPRPQAMPRP, for which the “shrunken log2 fold change” value stood at 0.015.

Values taken from the supplement of paper PMC9112550, “Optimization of the antimicrobial peptide Bac7 by deep mutational scanning” (BMC Biology, 2022).
